Laboratory results reported in the RNAGym collection of RNA variant scans (doi:10.1021/acssynbio.7b00057).

B1: Pistol ribozyme (parent)
chain: GGGUCGUUGUUCCAUAAUCGCGUGGAUAUGGCACGCAAGUUUCUACCGGGCACCGUAAAUGUCCGACUGGAGCCGUUCGGGCGGCUAUAAACAGACCUCAGGCCCGAAGCGUGGCGGCACCUGCCGCCGGUGGUAAAAAAGAUCGGAAGAGCACACGUCU

Variants of: B1
Experiment: aptazyme ON/OFF ratio, guanine; higher = stronger switching; co-transcriptional cleavage with and without guanine

Row | Variant | aptazyme ON/OFF ratio
1 | GGGUCGAAAACUUAUAAUCGCGUGGAUAUGGCACGCAAGUUUCUACCGGGCACCGUAAAUGUCCGACUGGAGCCGUUCGGGCGGCUAUAAACAGACCUCAGGCCCGAAGCGUGGCGGCACCUGCCGCCGGUGGUAAAAAAGAUCGGAAGAGCACACGUCU [U7A U8A G9A U10A U11C C12U C13U] | 1.14
2 | GGGUCGAAAACUAAUAAUCGCGUGGAUAUGGCACGCAAGUUUCUACCGGGCACCGUAAAUGUCCGACUGGAGCCGUUCGGGCGGCUAUAAACAGACCUCAGGCCCGAAGCGUGGCGGCACCUGCCGCCGGUGGUAAAAAAGAUCGGAAGAGCACACGUCU [U7A U8A G9A U10A U11C C12U C13A] | 1.17
3 | GGGUCGAAAACCGAUAAUCGCGUGGAUAUGGCACGCAAGUUUCUACCGGGCACCGUAAAUGUCCGACUGGAGCCGUUCGGGCGGCUAUAAACAGACCUCAGGCCCGAAGCGUGGCGGCACCUGCCGCCGGUGGUAAAAAAGAUCGGAAGAGCACACGUCU [U7A U8A G9A U10A U11C C13G] | 1.06
4 | GGGUCGAAAACCUAUAAUCGCGUGGAUAUGGCACGCAAGUUUCUACCGGGCACCGUAAAUGUCCGACUGGAGCCGUUCGGGCGGCUAUAAACAGACCUCAGGCCCGAAGCGUGGCGGCACCUGCCGCCGGUGGUAAAAAAGAUCGGAAGAGCACACGUCU [U7A U8A G9A U10A U11C C13U] | 1.08
5 | GGGUCGAAAACCAAUAAUCGCGUGGAUAUGGCACGCAAGUUUCUACCGGGCACCGUAAAUGUCCGACUGGAGCCGUUCGGGCGGCUAUAAACAGACCUCAGGCCCGAAGCGUGGCGGCACCUGCCGCCGGUGGUAAAAAAGAUCGGAAGAGCACACGUCU [U7A U8A G9A U10A U11C C13A] | 1.05
6 | GGGUCGAAAACAGAUAAUCGCGUGGAUAUGGCACGCAAGUUUCUACCGGGCACCGUAAAUGUCCGACUGGAGCCGUUCGGGCGGCUAUAAACAGACCUCAGGCCCGAAGCGUGGCGGCACCUGCCGCCGGUGGUAAAAAAGAUCGGAAGAGCACACGUCU [U7A U8A G9A U10A U11C C12A C13G] | 1.14
7 | GGGUCGAAAACAUAUAAUCGCGUGGAUAUGGCACGCAAGUUUCUACCGGGCACCGUAAAUGUCCGACUGGAGCCGUUCGGGCGGCUAUAAACAGACCUCAGGCCCGAAGCGUGGCGGCACCUGCCGCCGGUGGUAAAAAAGAUCGGAAGAGCACACGUCU [U7A U8A G9A U10A U11C C12A C13U] | 1.24
8 | GGGUCGAAAACAAAUAAUCGCGUGGAUAUGGCACGCAAGUUUCUACCGGGCACCGUAAAUGUCCGACUGGAGCCGUUCGGGCGGCUAUAAACAGACCUCAGGCCCGAAGCGUGGCGGCACCUGCCGCCGGUGGUAAAAAAGAUCGGAAGAGCACACGUCU [U7A U8A G9A U10A U11C C12A C13A] | 1.2
9 | GGGUCGAAAAAGGAUAAUCGCGUGGAUAUGGCACGCAAGUUUCUACCGGGCACCGUAAAUGUCCGACUGGAGCCGUUCGGGCGGCUAUAAACAGACCUCAGGCCCGAAGCGUGGCGGCACCUGCCGCCGGUGGUAAAAAAGAUCGGAAGAGCACACGUCU [U7A U8A G9A U10A U11A C12G C13G] | 1.28
10 | GGGUCGAAAAAGUAUAAUCGCGUGGAUAUGGCACGCAAGUUUCUACCGGGCACCGUAAAUGUCCGACUGGAGCCGUUCGGGCGGCUAUAAACAGACCUCAGGCCCGAAGCGUGGCGGCACCUGCCGCCGGUGGUAAAAAAGAUCGGAAGAGCACACGUCU [U7A U8A G9A U10A U11A C12G C13U] | 1.13
11 | GGGUCGAAAAAGAAUAAUCGCGUGGAUAUGGCACGCAAGUUUCUACCGGGCACCGUAAAUGUCCGACUGGAGCCGUUCGGGCGGCUAUAAACAGACCUCAGGCCCGAAGCGUGGCGGCACCUGCCGCCGGUGGUAAAAAAGAUCGGAAGAGCACACGUCU [U7A U8A G9A U10A U11A C12G C13A] | 1.14
12 | GGGUCGAAAACGAAUAAUCGCGUGGAUAUGGCACGCAAGUUUCUACCGGGCACCGUAAAUGUCCGACUGGAGCCGUUCGGGCGGCUAUAAACAGACCUCAGGCCCGAAGCGUGGCGGCACCUGCCGCCGGUGGUAAAAAAGAUCGGAAGAGCACACGUCU [U7A U8A G9A U10A U11C C12G C13A] | 1.11
13 | GGGUCGAAAACGGAUAAUCGCGUGGAUAUGGCACGCAAGUUUCUACCGGGCACCGUAAAUGUCCGACUGGAGCCGUUCGGGCGGCUAUAAACAGACCUCAGGCCCGAAGCGUGGCGGCACCUGCCGCCGGUGGUAAAAAAGAUCGGAAGAGCACACGUCU [U7A U8A G9A U10A U11C C12G C13G] | 1.3
14 | GGGUCGAAAACGUAUAAUCGCGUGGAUAUGGCACGCAAGUUUCUACCGGGCACCGUAAAUGUCCGACUGGAGCCGUUCGGGCGGCUAUAAACAGACCUCAGGCCCGAAGCGUGGCGGCACCUGCCGCCGGUGGUAAAAAAGAUCGGAAGAGCACACGUCU [U7A U8A G9A U10A U11C C12G C13U] | 1.1
15 | GGGUCGAAAAAUCAUAAUCGCGUGGAUAUGGCACGCAAGUUUCUACCGGGCACCGUAAAUGUCCGACUGGAGCCGUUCGGGCGGCUAUAAACAGACCUCAGGCCCGAAGCGUGGCGGCACCUGCCGCCGGUGGUAAAAAAGAUCGGAAGAGCACACGUCU [U7A U8A G9A U10A U11A C12U] | 1.17
16 | GGGUCGAAAAAGCAUAAUCGCGUGGAUAUGGCACGCAAGUUUCUACCGGGCACCGUAAAUGUCCGACUGGAGCCGUUCGGGCGGCUAUAAACAGACCUCAGGCCCGAAGCGUGGCGGCACCUGCCGCCGGUGGUAAAAAAGAUCGGAAGAGCACACGUCU [U7A U8A G9A U10A U11A C12G] | 1.27
17 | GGGUCGAAAAAACAUAAUCGCGUGGAUAUGGCACGCAAGUUUCUACCGGGCACCGUAAAUGUCCGACUGGAGCCGUUCGGGCGGCUAUAAACAGACCUCAGGCCCGAAGCGUGGCGGCACCUGCCGCCGGUGGUAAAAAAGAUCGGAAGAGCACACGUCU [U7A U8A G9A U10A U11A C12A] | 1.26
18 | GGGUCGAAAAGACAUAAUCGCGUGGAUAUGGCACGCAAGUUUCUACCGGGCACCGUAAAUGUCCGACUGGAGCCGUUCGGGCGGCUAUAAACAGACCUCAGGCCCGAAGCGUGGCGGCACCUGCCGCCGGUGGUAAAAAAGAUCGGAAGAGCACACGUCU [U7A U8A G9A U10A U11G C12A] | 1.04
